# In patent US20220389075A1:
# B1: α-CD28 + β-41BB (Linker GGS) (TCR)
# TCR alpha: KQEVTQIPAALSVPEGENLVLNCSFTDSAIYNLQWFRQDPGKGLTSLLLIQSSQREQTSGRLNASLDKSSGRSTLYIAASQPGDSATYLCAVRPLYGGSYIPTFGRGTSLIVHPYIQNPDPAVYQLRDSKSSDKSVCLFTDFDSQTNVSQSKDSDVYITDKCVLDMRSMDFKSNSAVAWSNKSDFACANAFNNSIIPEDTFFPSPESSCDVKLVEKSFETDTNLNFQNLSVIGFRILLLKVAGFNLLMTLRLWSSGGSRSKRSRLLHSDYMNMTPRRPGPTRKHYQPYAPPRDFAAYRS
# TCR beta: NAGVTQTPKFQVLKTGQSMTLQCAQDMNHEYMSWYRQDPGMGLRLIHYSVGAGITDQGEVPNGYNVSRSTTEDFPLRLLSAAPSQTSVYFCASSYVGNTGELFFGEGSRLTVLEDLKNVFPPEVAVFEPSEAEISHTQKATLVCLATGFYPDHVELSWWVNGKEVHSGVCTDPQPLKEQPALNDSRYCLSSRLRVSATFWQNPRNHFRCQVQFYGLSENDEWTQDRAKPVTQIVSAEAWGRADCGFTSESYQQGVLSA
# B2: α-CD28 + β-CD28 (Linker GGS) (TCR)
# TCR alpha: KQEVTQIPAALSVPEGENLVLNCSFTDSAIYNLQWFRQDPGKGLTSLLLIQSSQREQTSGRLNASLDKSSGRSTLYIAASQPGDSATYLCAVRPLYGGSYIPTFGRGTSLIVHPYIQNPDPAVYQLRDSKSSDKSVCLFTDFDSQTNVSQSKDSDVYITDKCVLDMRSMDFKSNSAVAWSNKSDFACANAFNNSIIPEDTFFPSPESSCDVKLVEKSFETDTNLNFQNLSVIGFRILLLKVAGFNLLMTLRLWSSGGSRSKRSRLLHSDYMNMTPRRPGPTRKHYQPYAPPRDFAAYRS
# TCR beta: NAGVTQTPKFQVLKTGQSMTLQCAQDMNHEYMSWYRQDPGMGLRLIHYSVGAGITDQGEVPNGYNVSRSTTEDFPLRLLSAAPSQTSVYFCASSYVGNTGELFFGEGSRLTVLEDLKNVFPPEVAVFEPSEAEISHTQKATLVCLATGFYPDHVELSWWVNGKEVHSGVCTDPQPLKEQPALNDSRYCLSSRLRVSATFWQNPRNHFRCQVQFYGLSENDEWTQDRAKPVTQIVSAEAWGRADCGFTSESYQQGVLSATILYEILLGKATLYAVLVSALVLMAMVKRKDSRGGGSRSKRSRLLHSDYMNMTPRRPGPTRKHYQPYAPPRDFAAYRS
# B3: α-CD28 + β (Linker GGS) (TCR)
# TCR alpha: KQEVTQIPAALSVPEGENLVLNCSFTDSAIYNLQWFRQDPGKGLTSLLLIQSSQREQTSGRLNASLDKSSGRSTLYIAASQPGDSATYLCAVRPLYGGSYIPTFGRGTSLIVHPYIQNPDPAVYQLRDSKSSDKSVCLFTDFDSQTNVSQSKDSDVYITDKCVLDMRSMDFKSNSAVAWSNKSDFACANAFNNSIIPEDTFFPSPESSCDVKLVEKSFETDTNLNFQNLSVIGFRILLLKVAGFNLLMTLRLWSSGGSRSKRSRLLHSDYMNMTPRRPGPTRKHYQPYAPPRDFAAYRS
# TCR beta: NAGVTQTPKFQVLKTGQSMTLQCAQDMNHEYMSWYRQDPGMGLRLIHYSVGAGITDQGEVPNGYNVSRSTTEDFPLRLLSAAPSQTSVYFCASSYVGNTGELFFGEGSRLTVLEDLKNVFPPEVAVFEPSEAEISHTQKATLVCLATGFYPDHVELSWWVNGKEVHSGVCTDPQPLKEQPALNDSRYCLSSRLRVSATFWQNPRNHFRCQVQFYGLSENDEWTQDRAKPVTQIVSAEAWGRADCGFTSESYQQGVLSA
# Target: Alexa Fluor 647-labeled NY-ESO-1-MHC tetramer
# Experiment: flow cytometry of transfected Jurkat NFAT-luciferase cells stained with Alexa Fluor 647-labeled NY-ESO-1-MHC tetramer; x axis Alexa 647-A; Empty Vector gate 0.46
row,Binder,NYESO+ [%]
1,B1,52.3
2,B2,53.6
3,B3,64.5
